The text below walks through data of patent US20190038721A1 (Novo Nordisk, published 2019).

Starred links: 1 amine or outer side, 2 acyl side, 3 side chain; linkers in the order of their positions; H or OH if unused. Non-standard residues stand in square brackets, D forms with d. Groups on a side chain read outwards from the residue. No end group written: not given here. *: point of attachment. 2‑(bis(3-aminopropyl)amino)acetyl = branch point, each 3-aminopropyl arm carries one of the two bracketed chains; 4‑(aminomethyl)cyclohexanecarbonyl = 4-(aminomethyl)cyclohexanecarbonyl linker unit; Undecanoyl(11-OPh(4-COOH)) = O=C(O)c1ccc(OCCCCCCCCCCC(=O)*)cc1; Decanoyl(10-(4-HOOC-PhO)) = O=C(O)c1ccc(OCCCCCCCCCC(=O)*)cc1; Decanoyl(10-O(3-COOH-Ph)) = O=C(O)c1cccc(OCCCCCCCCCC(=O)*)c1; C20 diacid = O=C(O)CCCCCCCCCCCCCCCCCCC(=O)*; γGlu = O=C(O)[C@H](CCC(=O)[*:2])N[*:1]; C14 diacid = O=C(O)CCCCCCCCCCCCC(=O)*; Palmitoyl = CCCCCCCCCCCCCCCC(=O)*; AEEA = NCCOCCOCC(=O)O; Aib = CC(C)(N)C(=O)O

In experiment [1] the target is T1, human GLP-1 receptor (human, UniProt P43220 24-463). Briefly: cell-based or functional assay.
The target in experiment [2] is T1, human GLP-1 receptor. Briefly: competitive binding (SPA), displacement of 125I-GLP-1(7-36)NH2 from membranes with human GLP-1 receptor, high HSA (2.0% w/v). The procedure:
(§1) 1. For the receptor binding assay in the presence of low HSA (0.005% (w/v)) 50 μl of the assay buffer was added to each well of an assay plate. Assay continued with step 3. 2. For the receptor binding assay in the presence of high HSA (2% (w/v)) 50 μl of the 8% (w/v) albumin stock was added to each well of an assay plate. Assay continued with step 3. 3. […] 4. Cell membrane aliquots were thawed and diluted to their working concentration. Fifty μl were added to each well in the assay plate. 5. WGA SPA beads were suspended in assay buffer at 20 mg/ml. The suspension was diluted to 10 mg/ml in assay buffer just prior to addition to the assay plate. Fifty μl were added to each well in the assay plate. 6. […] A 25 μl aliquot was reserved for measuring total counts/well. 7. The assay plate was incubated for 2 h at 30° C. 8. The assay plate was centrifuged for 10 min. 9. The assay plate was read in a Packard TopCount NXT instrument.
(§2) Individual replicates were analysed using non-linear regression in GraphPad Prism.
Background: In a radioligand displacement assay an active substance lowers the binding of a labelled ligand.

The target in experiment [3] is T1, human GLP-1 receptor. As to the kind of experiment: competitive binding (SPA), displacement of 125I-GLP-1(7-36)NH2 from membranes with human GLP-1 receptor, low HSA. The procedure:
as §1, §2

Take HWEGTFTSDVSSYLEEQAAREFIAWLVRGRGK([AEEA-AEEA-γGlu-4‑(aminomethyl)cyclohexanecarbonyl-C20 diacid])GGSK([AEEA-AEEA-γGlu-4‑(aminomethyl)cyclohexanecarbonyl-C20 diacid]): the “EC50 (pM), in vitro potency, CRE luciferase reporter gene assay in BHK cells” value (shortened to “EC50 (pM), in vitro potency”) with human GLP-1 receptor [1] was determined as 70.5 pM. Moreover, the half-inhibitory concentration (IC50) in the experiment with human GLP-1 receptor [2] is 305 nM.

On to H[Aib]EGTFTSDVSSYLEEQAAREFIAWLVRGRPK (also: Lys32 acylated as, structure not given here) [Comparative Example 11A (Example 10 of WO 2016/083499)], for which the results for the IC50 in the experiment with human GLP-1 receptor [3] and with human GLP-1 receptor [2] were 0.401 nM and 34.4 nM, respectively. Moreover, the “EC50 (pM), in vitro potency” value in the experiment with human GLP-1 receptor [1] was 12.5 pM.

Turning to HWEGTFTSDVSSYLEGQAAK([AEEA-AEEA-γGlu-Decanoyl(10-(4-HOOC-PhO))])EFIAWLVRGRK([AEEA-AEEA-γGlu-Decanoyl(10-(4-HOOC-PhO))]), the results for the IC50 with human GLP-1 receptor [3] and with human GLP-1 receptor [2] were 6.23 nM and 771 nM, respectively. Besides, the “EC50 (pM), in vitro potency” value with human GLP-1 receptor [1] came to 30 pM.

For HWEGTFTSDVSSYLEGQAAKEFIAWLVKGRG (also called 8W GLP-1(7-37)) [[Trp8]-GLP-1-(7-37)-peptide], the IC50 is 0.67 nM with human GLP-1 receptor [3] and 0.208 nM with human GLP-1 receptor [2]. Further, the “EC50 (pM), in vitro potency” value in the experiment with human GLP-1 receptor [1] came to 12 pM.

On to HWEGTFTSDVSSYLEEQAAREFIAWLVRGK([AEEA-AEEA-γGlu-Undecanoyl(11-OPh(4-COOH))])K([AEEA-AEEA-γGlu-Undecanoyl(11-OPh(4-COOH))]), for which, in the experiment with human GLP-1 receptor [3], the IC50 was 0.535 nM.

In the case of HWEGTFTSDVSSYLEEQAAREFIAWLVRGRK([Lys-AEEA-AEEA-AEEA-AEEA-AEEA-AEEA-γGlu-4‑(aminomethyl)cyclohexanecarbonyl-C20 diacid)+(AEEA-AEEA-AEEA-AEEA-AEEA-AEEA-γGlu-4‑(aminomethyl)cyclohexanecarbonyl-C20 diacid]) (also called 10), the “EC50 (pM), in vitro potency” value in the experiment with human GLP-1 receptor [1] was 31.2 pM. For the same molecule, the IC50 with human GLP-1 receptor [2] stood at 123 nM.

Molecule HWEGTFTSDVSSYLEEQAAREFIAWLVRGK([AEEA-AEEA-AEEA-AEEA-γGlu-C14 diacid])K([AEEA-AEEA-AEEA-AEEA-γGlu-C14 diacid]) returned an IC50 in the experiment with human GLP-1 receptor [3] of 0.55 nM.

HPEGTFTSDVSSYLEEQAAREFIAWLVKGRG [[Pro8,Glu22,Arg26]-GLP-1-(7-37)-peptide]: the IC50 in the experiment with human GLP-1 receptor [3] worked out at 0.075 nM; in the experiment with human GLP-1 receptor [2], 0.035 nM. Also, in the experiment with human GLP-1 receptor [1], the “EC50 (pM), in vitro potency” value turned out to be 0.57 pM.

On to HWEGTFTSDVSSYLEEQAAREFIAWLVRGK([AEEA-AEEA-γGlu-Decanoyl(10-O(3-COOH-Ph))])K([AEEA-AEEA-γGlu-Decanoyl(10-O(3-COOH-Ph))]), for which, in the experiment with human GLP-1 receptor [3], the IC50 came out at 0.405 nM.

In the case of HWEGTFTSDVSSYLEEQAAREFIAWLVRGRK([AEEA-AEEA-2‑(bis(3-aminopropyl)amino)acetyl-AEEA-AEEA-AEEA-AEEA-γGlu-4‑(aminomethyl)cyclohexanecarbonyl-C20 diacid)+(AEEA-AEEA-AEEA-AEEA-γGlu-4‑(aminomethyl)cyclohexanecarbonyl-C20 diacid]) (also called 13) [N{Epsilon-37}-[2-[2-[2-[[2-[2-[2-[[2-[bis[3-[[2-[2-[2-[[2-[2-[2-[[2-[2-[2-[[2-[2-[2-[[(4 …], the “EC50 (pM), in vitro potency” value in the experiment with human GLP-1 receptor [1] was found to be 32.1 pM. Besides, the IC50 in the experiment with human GLP-1 receptor [2] stood at 71.6 nM.

As for HWEGTFTSDVSSYLEGQAAK([γGlu-Palmitoyl])EFIAWLVRGRG [N{Epsilon-26}-[(4S)-4-carboxy-4-(hexadecanoylamino)butanoyl]-[Trp8,Arg34]-GLP-1-(7-37)-peptide], the “EC50 (pM), in vitro potency” value with human GLP-1 receptor [1] stood at 21 pM.

On to HGEGTFTSDVSSYLEGQAAKEFIAWLVKGRG [[Gly8]-GLP-1-(7-37)-peptide], for which the IC50 with human GLP-1 receptor [3] turned out to be 2.64 nM; with human GLP-1 receptor [2] it was 0.62 nM. In addition, in the experiment with human GLP-1 receptor [1], the “EC50 (pM), in vitro potency” value worked out at 32 pM.

B1: N{Epsilon-37}-[2-[2-[2-[[2-[2-[2-[[(2)-2,6-bis[[2-[2-[2-[[2-[2-[2-[[2-[2-[2-[[2-[2-[2-[[(4S)-4-carboxy-4-[[4-[(19-carboxynonadecanoylamino)methyl]cyclohexanecar … (peptide)
peptide: HWEGTFTSDVSSYLEEQAAREFIAWLVRGRK([AEEA-AEEA-2,6‑diaminohexanoyl-AEEA-AEEA-AEEA-AEEA-γGlu-4‑(aminomethyl)cyclohexanecarbonyl-C20 diacid)+(AEEA-AEEA-AEEA-AEEA-γGlu-4‑(aminomethyl)cyclohexanecarbonyl-C20 diacid])
notes: the claim prints (2S)-2,6-bis; also called 12
Turning to B1, the “EC50 (pM), in vitro potency” value with human GLP-1 receptor [1] stood at 62.9 pM. In the experiment with human GLP-1 receptor [2], this molecule returned an IC50 of 51.8 nM.

B2: Comparative Example 3A (Example 31 of WO 2012/140117) (peptide)
chain: H[Aib]EGTFTSDVSSYLEEQAARKFIEWLVRGKGEG
modifications: not fully specified (residues 21, 30); also: Lys21 and Lys30 acylated as, structure not given here
With B2, the values for the IC50 with human GLP-1 receptor [3] and with human GLP-1 receptor [2] were 0.26 nM and 134 nM, respectively. Further, the “EC50 (pM), in vitro potency” value in the experiment with human GLP-1 receptor [1] worked out at 0.53 pM.

For HWEGTFTSDVSSYLEEQAARK([AEEA-AEEA-γGlu-Decanoyl(10-(4-HOOC-PhO))])FIEWLVRGK([AEEA-AEEA-γGlu-Decanoyl(10-(4-HOOC-PhO))])GEG, the IC50 in the experiment with human GLP-1 receptor [3] came to 1.03 nM; with human GLP-1 receptor [2] it was 84.9 nM. The “EC50 (pM), in vitro potency” value with human GLP-1 receptor [1] was 2.7 pM.

For H[Aib]EGTFTSDVSSYLEEQAAREFIAWLVRGRGKGGSK (also: the two extension Lys residues acylated as in the compound) [Comparative Example 9A (Example 3 of WO 2015/000942)], the figures for the IC50 with human GLP-1 receptor [3] and in the experiment with human GLP-1 receptor [2] were 1.04 nM and 235 nM, respectively. In addition, the “EC50 (pM), in vitro potency” value in the experiment with human GLP-1 receptor [1] was determined as 41.3 pM.

By IC50 is commonly meant the midpoint of a concentration-inhibition curve. Low readings indicate greater potency in that assay, high ones weaker potency in that assay.
